Results: patent US20220033501A1 (SHANGHAI PHARMAEXPLORER, published 2022)
Changes are numbered by the printed parent chain. Values belong to the binder of their own block, whether it stands above or below them.

Columns and labels:
[1] = biological target: T1, TIM-3 protein on human peripheral blood mononuclear lymphocytes (PBMC) (human, UniProt Q8TDQ0 22-301); assay: cell-based or functional assay
T1 sequence: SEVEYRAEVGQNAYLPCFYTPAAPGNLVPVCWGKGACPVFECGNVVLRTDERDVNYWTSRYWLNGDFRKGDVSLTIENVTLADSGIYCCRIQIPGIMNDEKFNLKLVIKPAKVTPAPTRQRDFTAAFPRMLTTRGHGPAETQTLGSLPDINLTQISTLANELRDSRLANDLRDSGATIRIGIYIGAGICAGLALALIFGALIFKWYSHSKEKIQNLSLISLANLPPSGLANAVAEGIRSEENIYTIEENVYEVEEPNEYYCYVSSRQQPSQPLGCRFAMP

[2] = biological target: T2, human TIM-3 on CHOK1 stable cell line (CHOK1-hTIM-3) (human, UniProt Q8TDQ0 22-301); assay: FACS, CHOK1-hTIM-3 cells, 0.32 nM antibody
T2 sequence: T1 sequence

[3] = biological target: T3, monkey TIM-3 on CHOK1 stable cell line (CHOK1-cTIM-3) (monkey); assay: FACS, CHOK1-cTIM-3 cells, 0 nM antibody
T3 chain: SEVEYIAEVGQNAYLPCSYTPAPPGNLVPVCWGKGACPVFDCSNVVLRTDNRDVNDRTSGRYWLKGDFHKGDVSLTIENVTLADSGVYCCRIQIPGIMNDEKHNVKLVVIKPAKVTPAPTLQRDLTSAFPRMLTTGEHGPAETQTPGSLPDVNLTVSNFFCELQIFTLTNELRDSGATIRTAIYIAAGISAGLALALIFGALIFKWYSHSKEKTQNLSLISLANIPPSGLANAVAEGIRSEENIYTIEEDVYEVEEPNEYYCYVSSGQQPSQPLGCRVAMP

[4] = biological target: T4, murine TIM-3 extracellular domain protein with hFc tag (mTIM-3-hFc) (mouse, UniProt Q8VIM0 29-191); assay: ELISA, coated mouse TIM-3 ECD protein, 0.6667 nM antibody
T4 construct: also called mouse TIM-3 extracellular domain protein; not shown: human IgG Fc fragment (hFc) of the pCpC vector
T4 chain: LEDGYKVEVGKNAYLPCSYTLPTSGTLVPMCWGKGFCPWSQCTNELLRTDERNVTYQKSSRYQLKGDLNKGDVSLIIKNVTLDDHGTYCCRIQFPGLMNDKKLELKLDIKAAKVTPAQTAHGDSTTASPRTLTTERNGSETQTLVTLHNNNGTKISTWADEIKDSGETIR

[5] = biological target: T5, human TIM-3 extracellular domain protein with hFc tag (hTIM-3-hFc) (human, UniProt Q8TDQ0 22-200); assay: ELISA, coated human TIM-3 ECD protein, 0.0001 nM antibody
T5 construct: not shown: human IgG Fc fragment (hFc) of the pCpC vector
T5 sequence: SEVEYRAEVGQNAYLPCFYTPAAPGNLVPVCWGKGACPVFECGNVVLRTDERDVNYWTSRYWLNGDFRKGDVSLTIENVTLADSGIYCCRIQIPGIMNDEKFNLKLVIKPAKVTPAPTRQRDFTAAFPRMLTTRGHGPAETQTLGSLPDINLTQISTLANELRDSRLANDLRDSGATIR

[6] = biological target: T6, monkey TIM-3 extracellular domain protein with hFc tag (cTIM-3-hFc) (monkey); assay: ELISA, coated monkey TIM-3 ECD protein, 0.6667 nM antibody
T6 construct: not shown: human IgG Fc fragment (hFc) of the pCpC vector
T6 chain: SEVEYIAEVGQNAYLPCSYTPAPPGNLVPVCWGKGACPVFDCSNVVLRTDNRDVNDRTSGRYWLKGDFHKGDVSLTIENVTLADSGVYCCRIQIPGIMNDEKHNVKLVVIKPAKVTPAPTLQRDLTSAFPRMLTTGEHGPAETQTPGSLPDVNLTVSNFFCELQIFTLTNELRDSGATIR

- IFN-γ production (donor X); antibody 0.1 µg/ml, N = 1 [1]: 2770 pg/mL
- IFN-γ production (donor X); antibody 0.1 µg/ml, N = 2 [1]: 2820 pg/mL
- IFN-γ production (donor X); antibody 1 µg/ml, N = 1 [1]: 2930 pg/mL
- IFN-γ production (donor X); antibody 1 µg/ml, N = 2 [1]: 3550 pg/mL
- IFN-γ production (donor X); antibody 10 µg/ml, N = 1 [1]: 2980 pg/mL
- IFN-γ production (donor X); antibody 10 µg/ml, N = 2 [1]: 3330 pg/mL
- IFN-γ production (donor X); antibody '0' (4th head as printed), N = 1 [1]: 2600 pg/mL
- IFN-γ production (donor X); antibody '0' (4th head as printed), N = 2 [1]: 2540 pg/mL
- IFN-γ production (donor X); antibody '0' (5th head as printed), N = 1 [1]: 2280 pg/mL
- IFN-γ production (donor X); antibody '0' (5th head as printed), N = 2 [1]: 2390 pg/mL
- Mean fluorescence intensity [2]: 76.9
- Mean fluorescence intensity [3]: 2.9
- OD450 [4]: 0.27
- OD450 [5]: 0.09
- OD450 [6]: 3.37
B3: 34B6D8 fully human TIM-3 antibody (human IgG4, kappa) (antibody, V domains shown)
VH: EVQLVESGGGLVQPGGSLRLSCAASGFTFSTYWMTWVRQAPGKRLEWVANIKQGGGDKYYVDSVKGRFTISTDNAKNSLYLQMNSLRAEDTAVYYCARGSNWFDPWGQGTLVTVSS
VL: EIVMTQSPATLSMSPGERATLSCRASQSVYDNLAWYQQKPGQAPRLLIYGASTRATGIPARFSGSGSGTEFTLTISSLQSEDFALYYCQQYTHWPITFGQGTRLEIK

- IFN-γ production (donor X); antibody 0.1 µg/ml, N = 1 [1]: 2700 pg/mL
- IFN-γ production (donor X); antibody 0.1 µg/ml, N = 2 [1]: 2880 pg/mL
- IFN-γ production (donor X); antibody 1 µg/ml, N = 1 [1]: 3070 pg/mL
- IFN-γ production (donor X); antibody 1 µg/ml, N = 2 [1]: 3000 pg/mL
- IFN-γ production (donor X); antibody 10 µg/ml, N = 1 [1]: 3150 pg/mL
- IFN-γ production (donor X); antibody 10 µg/ml, N = 2 [1]: 3130 pg/mL
- IFN-γ production (donor X); antibody '0' (4th head as printed), N = 1 [1]: 2580 pg/mL
- IFN-γ production (donor X); antibody '0' (4th head as printed), N = 2 [1]: 2460 pg/mL
- IFN-γ production (donor X); antibody '0' (5th head as printed), N = 1 [1]: 2190 pg/mL
- IFN-γ production (donor X); antibody '0' (5th head as printed), N = 2 [1]: 2370 pg/mL
- Mean fluorescence intensity [2]: 73.1
- Mean fluorescence intensity [3]: 3
- OD450 [4]: 0.26
- OD450 [5]: 0.08
- OD450 [6]: 3.23
B4: 39E5H1 fully human TIM-3 antibody (human IgG4, kappa) (antibody, V domains shown)
VH: B3 VH with T31S, T35S, R44G, Q53R, G56S, D57E, K58R, T72G, L79V
VL: B3 VL with I2T, T10I, M13V, D31S, P40L, G50D, L85V, T92N, H93N

The next lines start with the binder.

B1: 7A4F10 fully human TIM-3 antibody (human IgG4, kappa) (antibody, V domains shown)
VH: EVQLLESGGGLVQPGGSLRLSCAASGFTFRTHLISWVRQAPGKGLEWVAAITGSGGSTYYADSVKGRFIISRDNSKNTLFLQMNSLRAEDTAVYYCAKDGGSGSYDDFWGQGTLVTVSS
VL: ETVLTQSPVTLSLSPGERATLSCRASQSVGSYLAWYQQKPGQAPRLLIYDASNRATGIPARFSGSGSGTDFTLTISSLEPEDFAVYYCQQRSNWPPTFGQGTKVEIK
- IFN-γ production (donor X); antibody 0.1 µg/ml, N = 1 [1]: 2930 pg/mL
- IFN-γ production (donor X); antibody 0.1 µg/ml, N = 2 [1]: 2730 pg/mL
- IFN-γ production (donor X); antibody 1 µg/ml, N = 1 [1]: 2920 pg/mL
- IFN-γ production (donor X); antibody 1 µg/ml, N = 2 [1]: 2780 pg/mL
- IFN-γ production (donor X); antibody 10 µg/ml, N = 1 [1]: 2900 pg/mL
- IFN-γ production (donor X); antibody 10 µg/ml, N = 2 [1]: 2360 pg/mL
- IFN-γ production (donor X); antibody '0' (4th head as printed), N = 1 [1]: 2340 pg/mL
- IFN-γ production (donor X); antibody '0' (4th head as printed), N = 2 [1]: 2370 pg/mL
- IFN-γ production (donor X); antibody '0' (5th head as printed), N = 1 [1]: 2290 pg/mL
- IFN-γ production (donor X); antibody '0' (5th head as printed), N = 2 [1]: 2230 pg/mL
- Mean fluorescence intensity [2]: 90.1
- Mean fluorescence intensity [3]: 2.8
- OD450 [4]: 0.25
- OD450 [5]: 0.08
- OD450 [6]: 2.46

B2: 18D2H2 fully human TIM-3 antibody (human IgG4, kappa) (antibody, V domains shown)
VH: B3 VH with G10D, K43R, R44G, G54D, G56S, D57A, I70L, T72R, N74D, P105Y
VL: ETVMTQSPATLSVSPGERATLSCRANQNVYSNLAWYQQKPGQAPRLLIYDASTRATGFPARFSGSGSGTEFTLTISSLQSEDFAVYYCQQYNNWPLTFGGGTKVEIK
- IFN-γ production (donor X); antibody 0.1 µg/ml, N = 1 [1]: 2660 pg/mL
- IFN-γ production (donor X); antibody 0.1 µg/ml, N = 2 [1]: 2650 pg/mL
- IFN-γ production (donor X); antibody 1 µg/ml, N = 1 [1]: 3000 pg/mL
- IFN-γ production (donor X); antibody 1 µg/ml, N = 2 [1]: 3140 pg/mL
- IFN-γ production (donor X); antibody 10 µg/ml, N = 1 [1]: 2810 pg/mL
- IFN-γ production (donor X); antibody 10 µg/ml, N = 2 [1]: 3070 pg/mL
- IFN-γ production (donor X); antibody '0' (4th head as printed), N = 1 [1]: 2280 pg/mL
- IFN-γ production (donor X); antibody '0' (4th head as printed), N = 2 [1]: 2590 pg/mL
- IFN-γ production (donor X); antibody '0' (5th head as printed), N = 1 [1]: 2340 pg/mL
- IFN-γ production (donor X); antibody '0' (5th head as printed), N = 2 [1]: 2170 pg/mL
- Mean fluorescence intensity [2]: 93.1
- Mean fluorescence intensity [3]: 2.8
- OD450 [4]: 0.22
- OD450 [5]: 0.08
- OD450 [6]: 3.16
